# Results reported in patent US20260217835.
# T1: IgG1 Fc fragment with CH3 modification T350V/L351Y/T366L/K392L/T394W/F405A/Y407V (SEQ ID NO: 77)
# T1 chain: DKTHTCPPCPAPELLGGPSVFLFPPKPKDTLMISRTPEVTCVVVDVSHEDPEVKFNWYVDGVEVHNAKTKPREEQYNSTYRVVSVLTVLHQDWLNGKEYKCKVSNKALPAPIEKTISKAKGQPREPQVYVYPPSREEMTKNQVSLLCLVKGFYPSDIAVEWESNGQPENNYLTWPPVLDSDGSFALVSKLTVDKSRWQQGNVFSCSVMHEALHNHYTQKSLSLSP
# T2: IgG1 Fc fragment with CH3 modification K392L/T394W/F405A/Y407V (SEQ ID NO: 70)
# T2 chain: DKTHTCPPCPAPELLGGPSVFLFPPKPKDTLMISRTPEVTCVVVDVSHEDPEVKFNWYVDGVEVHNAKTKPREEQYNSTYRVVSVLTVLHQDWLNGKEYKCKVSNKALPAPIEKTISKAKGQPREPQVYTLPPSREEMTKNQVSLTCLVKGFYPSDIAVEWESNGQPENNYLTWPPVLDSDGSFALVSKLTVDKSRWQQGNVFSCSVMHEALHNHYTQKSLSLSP
# T3: IgG1 Fc fragment with CH3 modification Q347R/K360E/D399V/F405T/K409W (SEQ ID NO: 66)
# T3 chain: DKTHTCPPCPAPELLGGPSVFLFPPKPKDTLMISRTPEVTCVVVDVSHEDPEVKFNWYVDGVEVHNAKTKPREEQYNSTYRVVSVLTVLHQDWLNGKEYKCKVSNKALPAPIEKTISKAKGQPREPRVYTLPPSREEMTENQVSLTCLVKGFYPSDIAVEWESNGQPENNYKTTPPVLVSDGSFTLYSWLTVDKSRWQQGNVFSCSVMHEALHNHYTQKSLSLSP
# T4: IgG1 Fc fragment with CH3 modification T366W/L368A/Y407V (SEQ ID NO: 65)
# T4 chain: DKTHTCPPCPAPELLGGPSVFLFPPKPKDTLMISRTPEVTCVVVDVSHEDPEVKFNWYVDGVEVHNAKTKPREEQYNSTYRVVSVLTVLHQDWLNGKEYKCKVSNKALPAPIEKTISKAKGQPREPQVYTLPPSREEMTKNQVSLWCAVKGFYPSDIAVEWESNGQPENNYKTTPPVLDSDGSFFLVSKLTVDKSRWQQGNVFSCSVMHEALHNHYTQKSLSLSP
# B1: full-length IgG heavy chain with CH3 modification Y349C/E357C/K392D/D399K (SEQ ID NO: 51), coexpressed with light chain SEQ ID NO: 61 (protein)
# chain 1: QVQLQESGPGLVRPSQTLSLTCTVSGYSITSDHAWSWVRQPPGRGLEWIGYISYSGITTYNPSLKSRVTMLRDTSKNQFSLRLSSVTAADTAVYYCARSLARTTAMDYWGQGSLVTVSSASTKGPSVFPLAPSSKSTSGGTAALGCLVKDYFPEPVTVSWNSGALTSGVHTFPAVLQSSGLYSLSSVVTVPSSSLGTQTYICNVNHKPSNTKVDKRVEPKSCDKTHTCPPCPAPELLGGPSVFLFPPKPKDTLMISRTPEVTCVVVDVSHEDPEVKFNWYVDGVEVHNAKTKPREEQYNSTYRVVSVLTVLHQDWLNGKEYKCKVSNKALPAPIEKTISKAKGQPREPQVCTLPPSRECMTKNQVSLTCLVKGFYPSDIAVEWESNGQPENNYDTTPPVLKSDGSFFLYSKLTVDKSRWQQGNVFSCSVMHEALHNHYTQKSLSLSP
# chain 2: not shown
# B2: full-length IgG heavy chain with CH3 modification E345R/K360E/D399M/Y407A/K409V (SEQ ID NO: 58), coexpressed with light chain SEQ ID NO: 61 (protein)
# chain 1: QVQLQESGPGLVRPSQTLSLTCTVSGYSITSDHAWSWVRQPPGRGLEWIGYISYSGITTYNPSLKSRVTMLRDTSKNQFSLRLSSVTAADTAVYYCARSLARTTAMDYWGQGSLVTVSSASTKGPSVFPLAPSSKSTSGGTAALGCLVKDYFPEPVTVSWNSGALTSGVHTFPAVLQSSGLYSLSSVVTVPSSSLGTQTYICNVNHKPSNTKVDKRVEPKSCDKTHTCPPCPAPELLGGPSVFLFPPKPKDTLMISRTPEVTCVVVDVSHEDPEVKFNWYVDGVEVHNAKTKPREEQYNSTYRVVSVLTVLHQDWLNGKEYKCKVSNKALPAPIEKTISKAKGQPRRPQVYTLPPSREEMTENQVSLTCLVKGFYPSDIAVEWESNGQPENNYKTTPPVLMSDGSFFLASVLTVDKSRWQQGNVFSCSVMHEALHNHYTQKSLSLSP
# chain 2: not shown
# B3: full-length IgG heavy chain with CH3 modification T350V/L351Y/T366L/K392L/T394W/F405A/Y407V (SEQ ID NO: 60), coexpressed with light chain SEQ ID NO: 61 (protein)
# chain 1: QVQLQESGPGLVRPSQTLSLTCTVSGYSITSDHAWSWVRQPPGRGLEWIGYISYSGITTYNPSLKSRVTMLRDTSKNQFSLRLSSVTAADTAVYYCARSLARTTAMDYWGQGSLVTVSSASTKGPSVFPLAPSSKSTSGGTAALGCLVKDYFPEPVTVSWNSGALTSGVHTFPAVLQSSGLYSLSSVVTVPSSSLGTQTYICNVNHKPSNTKVDKRVEPKSCDKTHTCPPCPAPELLGGPSVFLFPPKPKDTLMISRTPEVTCVVVDVSHEDPEVKFNWYVDGVEVHNAKTKPREEQYNSTYRVVSVLTVLHQDWLNGKEYKCKVSNKALPAPIEKTISKAKGQPREPQVYVYPPSREEMTKNQVSLLCLVKGFYPSDIAVEWESNGQPENNYLTWPPVLDSDGSFALVSKLTVDKSRWQQGNVFSCSVMHEALHNHYTQKSLSLSP
# chain 2: not shown
# B4: full-length IgG heavy chain with CH3 modification E345R/Q347R/K360D/T366V/D399M/Y407A/K409V (SEQ ID NO: 55), coexpressed with light chain SEQ ID NO: 61 (protein)
# chain 1: QVQLQESGPGLVRPSQTLSLTCTVSGYSITSDHAWSWVRQPPGRGLEWIGYISYSGITTYNPSLKSRVTMLRDTSKNQFSLRLSSVTAADTAVYYCARSLARTTAMDYWGQGSLVTVSSASTKGPSVFPLAPSSKSTSGGTAALGCLVKDYFPEPVTVSWNSGALTSGVHTFPAVLQSSGLYSLSSVVTVPSSSLGTQTYICNVNHKPSNTKVDKRVEPKSCDKTHTCPPCPAPELLGGPSVFLFPPKPKDTLMISRTPEVTCVVVDVSHEDPEVKFNWYVDGVEVHNAKTKPREEQYNSTYRVVSVLTVLHQDWLNGKEYKCKVSNKALPAPIEKTISKAKGQPRRPRVYTLPPSREEMTDNQVSLVCLVKGFYPSDIAVEWESNGQPENNYKTTPPVLMSDGSFFLASVLTVDKSRWQQGNVFSCSVMHEALHNHYTQKSLSLSP
# chain 2: not shown
# B5: full-length IgG heavy chain with CH3 modification E356K/K392D/D399K/K409D (SEQ ID NO: 56), coexpressed with light chain SEQ ID NO: 61 (protein)
# chain 1: QVQLQESGPGLVRPSQTLSLTCTVSGYSITSDHAWSWVRQPPGRGLEWIGYISYSGITTYNPSLKSRVTMLRDTSKNQFSLRLSSVTAADTAVYYCARSLARTTAMDYWGQGSLVTVSSASTKGPSVFPLAPSSKSTSGGTAALGCLVKDYFPEPVTVSWNSGALTSGVHTFPAVLQSSGLYSLSSVVTVPSSSLGTQTYICNVNHKPSNTKVDKRVEPKSCDKTHTCPPCPAPELLGGPSVFLFPPKPKDTLMISRTPEVTCVVVDVSHEDPEVKFNWYVDGVEVHNAKTKPREEQYNSTYRVVSVLTVLHQDWLNGKEYKCKVSNKALPAPIEKTISKAKGQPREPQVYTLPPSRKEMTKNQVSLTCLVKGFYPSDIAVEWESNGQPENNYDTTPPVLKSDGSFFLYSDLTVDKSRWQQGNVFSCSVMHEALHNHYTQKSLSLSP
# chain 2: not shown
# Assays:
# Assay in all cases: SEC area ratio of heteromultimer after coexpression of full-length heavy chain, light chain and Fc fragment in Expi293F
# [1] = target: T1, IgG1 Fc fragment with CH3 modification …
# [2] = target: IgG1 Fc fragment with CH3 modification T394W/F405A (SEQ ID NO: 64)
# [3] = target: T2, IgG1 Fc fragment with CH3 modification …
# [4] = target: T3, IgG1 Fc fragment with CH3 modification …
# [5] = target: T4, IgG1 Fc fragment with CH3 modification …
Protein,heterodimer formation ratio (%) [1],heterodimer formation ratio (%) [2],heterodimer formation ratio (%) [3],heterodimer formation ratio (%) [4],heterodimer formation ratio (%) [5]
B1,0%,0%,0%,0%,0%
B2,0%,0%,0%,4%,0%
B3,51%,6%,66%,0%,0%
B4,0%,0%,0%,6%,0%
B5,0%,0%,0%,0%,0%
